# According to patent US20260250325A1, “Antiviral Polypeptide Membrane Fusion Inhibitor, and Preparation Method and Application Thereof” (priority 2025, published 2026):
# T1: F protein of RSV A long virus strain (respiratory syncytial virus, RSV A long virus strain), P12568
# T1 chain: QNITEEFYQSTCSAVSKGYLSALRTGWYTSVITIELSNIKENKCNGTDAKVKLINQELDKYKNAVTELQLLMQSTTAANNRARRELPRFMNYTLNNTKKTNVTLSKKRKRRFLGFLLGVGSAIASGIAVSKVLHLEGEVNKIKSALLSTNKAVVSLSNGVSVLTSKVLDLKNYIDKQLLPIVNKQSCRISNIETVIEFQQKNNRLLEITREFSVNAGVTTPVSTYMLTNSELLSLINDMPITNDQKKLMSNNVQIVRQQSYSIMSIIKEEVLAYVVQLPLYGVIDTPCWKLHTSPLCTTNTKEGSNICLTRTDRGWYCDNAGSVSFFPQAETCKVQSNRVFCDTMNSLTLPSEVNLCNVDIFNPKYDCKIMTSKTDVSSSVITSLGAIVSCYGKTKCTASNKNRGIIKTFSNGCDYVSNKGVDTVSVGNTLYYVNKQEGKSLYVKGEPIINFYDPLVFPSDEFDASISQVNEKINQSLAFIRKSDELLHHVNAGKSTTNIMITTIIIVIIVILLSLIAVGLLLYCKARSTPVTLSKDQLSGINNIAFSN
# Tests used:
# RSV A long virus strain = type: cell-based
# Method in brief: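 Plaque reduction in HEp-2 cells: virus (100 PFU/well) and serially diluted compound (8 concentrations) mixed 1 h, adsorbed 2 h, then overlaid with 0.8% CMC medium plus compound for 1 day at 37 °C. Spots counted after anti-RSV immunostaining; IC50 from normalized inhibition, CC50 from viability data.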
# [1] = Cytotoxicity test in HEp-2 cells (CCK8 cell viability); type: cell-based; conditions: human
# Method in brief: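 Compound dilutions (final DMSO 0.5%) were applied for 1 day to HEp-2 cells plated at 30,000 per well the day before. CCK8 signal gave survival relative to cell and medium controls, and a four-parameter log(inhibitor)-response fit yielded CC50.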
# [2] = substrate: F protein of hMPV virus strain A2 (human metapneumovirus, strain A2); test: cell-based or functional assay
# [3] = substrate: F protein of hMPV virus strain B1 (human metapneumovirus, strain B1); test: cell-based or functional assay
# [4] = target: T1, F protein of RSV A long virus strain …; test: cell-based or functional assay
# [5] = substrate: F protein of hPIV Type 3 (hPIV3 C243) (human parainfluenza virus type 3, strain C243); test: cell-based or functional assay
# [6] = target: hPIV-N51 (139-189) (human parainfluenza virus (hPIV))
# Sequence of hPIV-N51 (139-189) (human parainfluenza virus (hPIV)) (P06828 139-189): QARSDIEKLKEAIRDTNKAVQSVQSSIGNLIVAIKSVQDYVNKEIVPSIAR
molecule,measurement,setting,value
Ac-SLEQVNKINKKIDKIEESLKKIEESDKKSLEVNKKLEAAAKK-NH2 [Compound 47],IC50,RSV A long virus strain,> 8000 nM
same,CC50 at 1 day,[1],> 8000 nM
WDEFDKKIEEVNKKIEESLKKIEESDKKLHNVEAAAKK (modifications not checked) [Compound 44],"EC50 (nM), plaque reduction, hMPV A2, Vero cells",[2],14.6 nM
same,"EC50 (nM), plaque reduction, hMPV B1, Vero cells",[3],6.6 nM
same,"IC50/nM, Cell fusion inhibition activity (plaque reduction, RSV A long strain, HEp-2 cells)",[4],12.4 nM
same,"EC50 (nM), plaque reduction, hPIV3 C243, LLC-MK2 cells",[5],27.9 nM
same,Kd,[6],6860 nM
DEFDKKKIEEVNKKIEESLKKIEESDKKLEEVEAAAKK (modifications not checked) [Compound 22],"EC50 (nM), plaque reduction, hMPV A2, Vero cells",[2],88.4 nM
same,"EC50 (nM), plaque reduction, hMPV B1, Vero cells",[3],18 nM
same,"IC50/nM, Cell fusion inhibition activity (plaque reduction, RSV A long strain, HEp-2 cells)",[4],11.3 nM
same,"EC50 (nM), plaque reduction, hPIV3 C243, LLC-MK2 cells",[5],65.4 nM
same,Kd,[6],20800 nM
SDEFDKKIEEVNKKIEESLKKIEESDKKLGSGSGK (modifications not checked) [Compound 20],"EC50 (nM), plaque reduction, hMPV A2, Vero cells",[2],7.47 nM
same,"EC50 (nM), plaque reduction, hMPV B1, Vero cells",[3],4.27 nM
same,"IC50/nM, Cell fusion inhibition activity (plaque reduction, RSV A long strain, HEp-2 cells)",[4],19.8 nM
same,"EC50 (nM), plaque reduction, hPIV3 C243, LLC-MK2 cells",[5],59.5 nM
same,Kd,[6],6800 nM
SDELVNKKIEFDKKINQSLKKIEESDKKKLEAAAKK (modifications not checked) [Compound 51],"EC50 (nM), plaque reduction, hMPV A2, Vero cells",[2],18.8 nM
same,"EC50 (nM), plaque reduction, hMPV B1, Vero cells",[3],3.82 nM
same,"IC50/nM, Cell fusion inhibition activity (plaque reduction, RSV A long strain, HEp-2 cells)",[4],9.9 nM
same,"EC50 (nM), plaque reduction, hPIV3 C243, LLC-MK2 cells",[5],18.8 nM
same,Kd,[6],51.4 nM
YDELVFDASQVNEKINQSLEKIRKSDELLHNVGSGSGK (modifications not checked) [Compound 25],"EC50 (nM), plaque reduction, hMPV A2, Vero cells",[2],86.4 nM
same,"EC50 (nM), plaque reduction, hMPV B1, Vero cells",[3],38.1 nM
same,"IC50/nM, Cell fusion inhibition activity (plaque reduction, RSV A long strain, HEp-2 cells)",[4],28.7 nM
same,"EC50 (nM), plaque reduction, hPIV3 C243, LLC-MK2 cells",[5],29.4 nM
same,Kd,[6],74600 nM
WDEFDASISQVNEKINQSLEEIRKSDELLHNEAAAKK (modifications not checked) [Compound 45],"EC50 (nM), plaque reduction, hMPV A2, Vero cells",[2],200 nM
same,"EC50 (nM), plaque reduction, hMPV B1, Vero cells",[3],13.1 nM
same,"IC50/nM, Cell fusion inhibition activity (plaque reduction, RSV A long strain, HEp-2 cells)",[4],12.2 nM
same,"EC50 (nM), plaque reduction, hPIV3 C243, LLC-MK2 cells",[5],36.3 nM
same,Kd,[6],178000 nM
DEFDKKIEEVNKKIEESLKKIEESDKKLEAAAKK (modifications not checked) [Compound 17],"EC50 (nM), plaque reduction, hMPV A2, Vero cells",[2],8.78 nM
same,"EC50 (nM), plaque reduction, hMPV B1, Vero cells",[3],3.61 nM
same,"IC50/nM, Cell fusion inhibition activity (plaque reduction, RSV A long strain, HEp-2 cells)",[4],17.6 nM
same,"EC50 (nM), plaque reduction, hPIV3 C243, LLC-MK2 cells",[5],52.6 nM
same,Kd,[6],314 nM
FDEEISQVNEKINQSLAFIRKSDELLHNVNAGKSTTEAAAKK (modifications not checked) [Compound 26],"EC50 (nM), plaque reduction, hMPV A2, Vero cells",[2],103 nM
same,"EC50 (nM), plaque reduction, hMPV B1, Vero cells",[3],2.85 nM
same,"IC50/nM, Cell fusion inhibition activity (plaque reduction, RSV A long strain, HEp-2 cells)",[4],12.8 nM
same,"EC50 (nM), plaque reduction, hPIV3 C243, LLC-MK2 cells",[5],1.35 nM
same,Kd,[6],2580 nM
WDEFDKKIEEVNKKIEESLKKIEESDKKLEAAAKK (modifications not checked) [Compound 13],"EC50 (nM), plaque reduction, hMPV A2, Vero cells",[2],11.7 nM
same,"EC50 (nM), plaque reduction, hMPV B1, Vero cells",[3],6.18 nM
same,"IC50/nM, Cell fusion inhibition activity (plaque reduction, RSV A long strain, HEp-2 cells)",[4],13 nM
same,"EC50 (nM), plaque reduction, hPIV3 C243, LLC-MK2 cells",[5],35.6 nM
same,Kd,[6],2280 nM
SDEFDKKIEEVNKKIEESLKKIEESDKKLEAAAKK (modifications not checked) [Compound 16],"EC50 (nM), plaque reduction, hMPV A2, Vero cells",[2],7.35 nM
same,"EC50 (nM), plaque reduction, hMPV B1, Vero cells",[3],4.5 nM
same,"IC50/nM, Cell fusion inhibition activity (plaque reduction, RSV A long strain, HEp-2 cells)",[4],10.3 nM
same,"EC50 (nM), plaque reduction, hPIV3 C243, LLC-MK2 cells",[5],59 nM
same,Kd,[6],5400 nM
DEFDKKIEEVNKKIEESLKKIEESDKKLEEVNEAAAKK (modifications not checked) [Compound 14],"EC50 (nM), plaque reduction, hMPV A2, Vero cells",[2],18.9 nM
same,"EC50 (nM), plaque reduction, hMPV B1, Vero cells",[3],5.36 nM
same,"IC50/nM, Cell fusion inhibition activity (plaque reduction, RSV A long strain, HEp-2 cells)",[4],9.9 nM
same,"EC50 (nM), plaque reduction, hPIV3 C243, LLC-MK2 cells",[5],31.4 nM
same,Kd,[6],495 nM
